Measurements as given in patent US20170008955A1 (CNJ, published 2017).
Where a chain is given by its changes, count along the chain named.

B1: hu5E3-IgG1 (antibody, V domains shown)
VH: QVQLQQSGPEVKKPGASVKISCKASGYIFTSYYIQWVIHAPGQGLEWIGWIYPGNVNTKYNEKFKGKATLTADKSSSTAYMELSSLTSEDTAVYFCARMDYEAHYWGQGTTVTVSS
VL: DIQMTQSPSSLSASVGDRVTITCRASQEISGYLTWLQQKPEGAIKRLIYAASTLDSGVPKRFSGSRSGSDYSLTISSLQPEDFATYNCLQYANYPRTFGGGTKLEIK
notes: human IgG1/kappa; also called humanized 5E3 IgG1; IHA variant
B2: murine monoclonal antibody 5E3 (antibody, V domains shown)
VH: B1 VH with V11L, K12V, K19R, A40R, E82Q, S85R, T91S, V112L
VL: B1 VL with V15L, D17E, T20S, I21L, E41D, A43T, Q79E, P80S, T85D
notes: mouse antibody of the 5E3 hybridoma; also called murine 5E3; m5E3
B3: hu5E3-IgG4 (antibody, V domains shown)
VH: B1 VH
VL: B1 VL
notes: human IgG4/kappa; also called humanized 5E3 IgG4
B4: hu5E3-IgG2 (antibody, V domains shown)
VH: B1 VH
VL: B1 VL
notes: human IgG2/kappa; also called humanized 5E3 IgG2
B5: rehu5E3-IgG4 (antibody, V domains shown)
VH: B1 VH with K12V, T87R, T91S, T111L
VL: B1 VL with V15L, I21L, G42K, S72T, T85D
notes: human IgG4/kappa; also called IgG4 rehu version

The binders below were run against T1, cSNK:BSA conjugate (bovine, head-to-tail cyclized; conjugated to BSA carrier) (assay: BLI 2:1 fit, site 2 (KD2); 3.13 nM row).
T1 construct: also called BSA-cSNK
T1 sequence (P02769 25-607 limits assumed): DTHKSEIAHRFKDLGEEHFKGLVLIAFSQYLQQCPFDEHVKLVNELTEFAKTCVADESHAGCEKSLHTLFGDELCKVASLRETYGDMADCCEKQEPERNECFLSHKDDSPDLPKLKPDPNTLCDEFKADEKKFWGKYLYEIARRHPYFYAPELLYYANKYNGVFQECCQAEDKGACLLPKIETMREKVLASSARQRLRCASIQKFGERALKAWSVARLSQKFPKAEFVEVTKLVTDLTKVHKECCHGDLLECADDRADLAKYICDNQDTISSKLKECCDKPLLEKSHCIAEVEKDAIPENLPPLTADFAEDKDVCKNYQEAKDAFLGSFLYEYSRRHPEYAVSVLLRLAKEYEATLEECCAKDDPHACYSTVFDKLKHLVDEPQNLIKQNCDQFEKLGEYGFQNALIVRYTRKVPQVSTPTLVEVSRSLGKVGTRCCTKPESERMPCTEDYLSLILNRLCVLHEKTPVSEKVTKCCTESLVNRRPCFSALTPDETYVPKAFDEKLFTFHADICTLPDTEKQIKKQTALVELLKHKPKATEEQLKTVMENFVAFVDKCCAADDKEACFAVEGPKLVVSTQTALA
Procedure: (§1) Biolayer interferometry (Octet […], ForteBio) was used to qualitatively/quantitatively assess the interactions between humanized versions of 5E3 and cSNK:BSA conjugate. […] MAbs were loaded onto sensors and then washed in PBST. Each sensor was associated with one of several cSNK:BSA standards (100 nM to 0 nM) and then washed in PBST. Data was processed statistically using ForteBio Data Analysis software to determine the strength of antigen-antibody binding (KD). For each mAb analyzed, a 2:1 model provided the “best fit”.

Kd [nM]	Binder
1.82	B1
1.59	B2
3.04	B3
6.39	B4
3.94	B5

What follows are binders tested against T1, cSNK:BSA conjugate (assay: BLI 2:1 fit, site 2 (KD2); 25 nM row).
Procedure: as §1

Kd [nM]	Binder
1.82	B1
1.59	B2
3.04	B3
6.39	B4
3.94	B5

Each binder was assayed against T1, cSNK:BSA conjugate (assay: BLI 2:1 fit, site 2 (kon2); 100 nM row).
Procedure: as §1

kon [M⁻¹ s⁻¹]	Binder
1.42e+07	B2
7.52e+06	B3
5.28e+06	B4
4.44e+06	B5

The binders below were run against T1, cSNK:BSA conjugate (assay: BLI 2:1 fit, site 2 (kdis2); 6.25 nM row).
Procedure: as §1

koff [s⁻¹]	Binder
0.012	B1
0.0226	B2
0.0229	B3
0.0338	B4
0.0175	B5

The binders below were run against T1, cSNK:BSA conjugate (assay: BLI 2:1 fit, site 2 (kon2); 25 nM row).
Procedure: as §1

kon [M⁻¹ s⁻¹]	Binder
6.56e+06	B1
1.42e+07	B2
7.52e+06	B3
5.28e+06	B4
4.44e+06	B5

These binders were tested against T1, cSNK:BSA conjugate (assay: BLI 2:1 fit, site 1; 50 nM row).
Procedure: as §1

Kd [nM]	koff [s⁻¹]	kon [M⁻¹ s⁻¹]	Binder
0.463	0.000825	1.78e+06	B1
0.33	0.000428	1.29e+06	B2
0.633	0.00055	868000	B3
1.18	0.000762	644000	B4
–	0.000386	692000	B5

What follows are binders tested against T1, cSNK:BSA conjugate (assay: BLI (Octet), 1:1 model, BSA-cSNK).
Procedure: Biolayer interferometry (Octet Red92, ForteBio) was used to qualitatively/quantitatively assess the interactions between humanized 5E3 and Δ5E3 mAbs to the cSNK:BSA conjugate. […] MAbs were loaded onto sensors and then washed in PBST. Each sensor was associated with one of several cSNK:BSA standards (100 nM to 0 nM) and then washed in PBST. Data was processed statistically using ForteBio Data Analysis software to determine the strength of antigen-antibody binding (KD). For each mAb analyzed, a 1:1 model provided the “best fit”.

Kd [nM]	Binder
2.01	B1
1.31	B3
0.326	B4

What follows are binders tested against T1, cSNK:BSA conjugate (assay: BLI 2:1 fit, site 2 (KD2); 1.56 nM row).
Procedure: as §1

Kd [nM]	Binder
1.82	B1
1.59	B2
3.04	B3
3.94	B5

Each binder was assayed against T1, cSNK:BSA conjugate (assay: BLI 2:1 fit, site 2 (kon2); 1.56 nM row).
Procedure: as §1

kon [M⁻¹ s⁻¹]	Binder
6.56e+06	B1
1.42e+07	B2
7.52e+06	B3
4.44e+06	B5

What follows are binders tested against T1, cSNK:BSA conjugate (assay: BLI 2:1 fit, site 2 (kdis2); 50 nM row).
Procedure: as §1

koff [s⁻¹]	Binder
0.012	B1
0.0226	B2
0.0229	B3
0.0338	B4
0.0175	B5

Each binder was assayed against T1, cSNK:BSA conjugate (assay: BLI 2:1 fit, site 2 (kon2); 3.13 nM row).
Procedure: as §1

kon [M⁻¹ s⁻¹]	Binder
6.56e+06	B1
1.42e+07	B2
7.52e+06	B3
5.28e+06	B4
4.44e+06	B5

The binders below were run against T1, cSNK:BSA conjugate (assay: BLI 2:1 fit, site 1; 3.13 nM row).
Procedure: as §1

Kd [nM]	koff [s⁻¹]	kon [M⁻¹ s⁻¹]	Binder
0.463	0.000825	1.78e+06	B1
0.33	0.000428	1.29e+06	B2
0.633	0.00055	868000	B3
1.18	0.000762	644000	B4
–	0.000386	692000	B5

Each binder was assayed against T1, cSNK:BSA conjugate (assay: BLI (Octet RED96), 2:1 kinetics, KD2, summary table).
Procedure: as §1
(§2) Table 7 summarizes the affinity constants of humanized 5E3 IgG1, IgG2 and IgG4 constructs. The KD ranges were determined using 2:1 kinetics of binding of analyte (BSA-cSNK) in solution to two different binding sites on the surface (immobilized bivalent, monospecific 5E3) in comparison to murine 5E3 using biolayer interferometry (Octet RED96).

Kd [nM]	Binder
0.182	B1
0.304	B3
6.39	B4
0.394	B5

Each binder was assayed against T1, cSNK:BSA conjugate (assay: BLI (Octet RED96), 2:1 kinetics, KD1, summary table).
Procedure: as §1, §2

Kd [nM]	Binder
0.463	B1
0.33	B2
0.633	B3
1.18	B4
0.557	B5

Each binder was assayed against T1, cSNK:BSA conjugate (assay: BLI 2:1 fit, site 1; 100 nM row).
Procedure: as §1

Kd [nM]	koff [s⁻¹]	kon [M⁻¹ s⁻¹]	Binder
0.33	0.000428	1.29e+06	B2
0.633	0.00055	868000	B3
1.18	0.000762	644000	B4
–	0.000386	692000	B5

The binders below were run against T1, cSNK:BSA conjugate (assay: BLI 2:1 fit, site 1; 1.56 nM row).
Procedure: as §1

Kd [nM]	koff [s⁻¹]	kon [M⁻¹ s⁻¹]	Binder
0.463	0.000825	1.78e+06	B1
0.33	0.000428	1.29e+06	B2
0.633	0.00055	868000	B3
–	0.000386	692000	B5

Each binder was assayed against T1, cSNK:BSA conjugate (assay: BLI 2:1 fit, site 2 (kon2); 6.25 nM row).
Procedure: as §1

kon [M⁻¹ s⁻¹]	Binder
6.56e+06	B1
1.42e+07	B2
7.52e+06	B3
5.28e+06	B4
4.44e+06	B5

What follows are binders tested against T1, cSNK:BSA conjugate (assay: BLI 2:1 fit, site 2 (KD2); 12.5 nM row).
Procedure: as §1

Kd [nM]	Binder
1.82	B1
1.59	B2
3.04	B3
6.39	B4
3.94	B5

These binders were tested against T1, cSNK:BSA conjugate (assay: BLI 2:1 fit, site 1; 25 nM row).
Procedure: as §1

Kd [nM]	koff [s⁻¹]	kon [M⁻¹ s⁻¹]	Binder
0.463	0.000825	1.78e+06	B1
0.33	0.000428	1.29e+06	B2
0.633	0.00055	868000	B3
1.18	0.000762	644000	B4
–	0.000386	692000	B5

What follows are binders tested against T1, cSNK:BSA conjugate (assay: BLI 2:1 fit, site 1; 6.25 nM row).
Procedure: as §1

Kd [nM]	koff [s⁻¹]	kon [M⁻¹ s⁻¹]	Binder
0.463	0.000825	1.78e+06	B1
0.33	0.000428	1.29e+06	B2
0.633	0.00055	868000	B3
1.18	0.000762	644000	B4
–	0.000386	692000	B5

Each binder was assayed against T1, cSNK:BSA conjugate (assay: BLI 2:1 fit, site 2 (kdis2); 25 nM row).
Procedure: as §1

koff [s⁻¹]	Binder
0.012	B1
0.0226	B2
0.0229	B3
0.0338	B4
0.0175	B5

The binders below were run against T1, cSNK:BSA conjugate (assay: BLI 2:1 fit, site 2 (KD2); 100 nM row).
Procedure: as §1

Kd [nM]	Binder
1.59	B2
3.04	B3
6.39	B4
3.94	B5

The binders below were run against T1, cSNK:BSA conjugate (assay: BLI 2:1 fit, site 1; 12.5 nM row).
Procedure: as §1

Kd [nM]	koff [s⁻¹]	kon [M⁻¹ s⁻¹]	Binder
0.463	0.000825	1.78e+06	B1
0.33	0.000428	1.29e+06	B2
0.633	0.00055	868000	B3
1.18	0.000762	644000	B4
–	0.000386	692000	B5

The binders below were run against T1, cSNK:BSA conjugate (assay: BLI 2:1 fit, site 2 (kdis2); 100 nM row).
Procedure: as §1

koff [s⁻¹]	Binder
0.0226	B2
0.0229	B3
0.0338	B4
0.0175	B5
